Measured values: the supplement of paper PMC9112550, “Optimization of the antimicrobial peptide Bac7 by deep mutational scanning” (BMC Biology, 2022)

Test system: Escherichia coli TOP10
Assay: shrunken log2 fold change of peptide-encoding DNA abundance (4.5 h post-induction vs induction); higher = less antimicrobial activity (less host growth inhibition)
Settings: time post-induction: 4.5 h; library: site-saturation at positions 5, 18, 19, 20
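Further: peptides expressed intracellularly from a pBAD plasmid library in pooled LB shake-flask culture, induced with 0.3% L-arabinose, DNA abundance read by NGS, three biological replicates, DESeq2 with apeglm shrinkage.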

Sequence	shrunken log2 fold change
RRIRGRPPRLPRPRPRPNGGPRP	0.0238
RRIRGRPPRLPRPRPRPNHCPRP	-0.112
RRIRGRPPRLPRPRPRPNHYPRP	-0.416
RRIRGRPPRLPRPRPRPNICPRP	0.168
RRIRGRPPRLPRPRPRPNLIPRP	-0.0614
RRIRGRPPRLPRPRPRPNNQPRP	-0.011
RRIRGRPPRLPRPRPRPNPPPRP	0.336
RRIRGRPPRLPRPRPRPNPRPRP	0.684
RRIRGRPPRLPRPRPRPNQGPRP	0.0411
RRIRGRPPRLPRPRPRPNQTPRP	-0.0961
RRIRGRPPRLPRPRPRPNRCPRP	0.422
RRIRGRPPRLPRPRPRPNSFPRP	-0.0356
RRIRGRPPRLPRPRPRPNSLPRP	0.271
RRIRGRPPRLPRPRPRPNVIPRP	0.211
RRIRGRPPRLPRPRPRPNWQPRP	0.0611
RRIRGRPPRLPRPRPRPPDMPRP	0.879
RRIRGRPPRLPRPRPRPPEVPRP	1.02
RRIRGRPPRLPRPRPRPPEYPRP	0.448
RRIRGRPPRLPRPRPRPPGGPRP	1.18
RRIRGRPPRLPRPRPRPPGKPRP	0.807
RRIRGRPPRLPRPRPRPPGSPRP	1.09
RRIRGRPPRLPRPRPRPPHGPRP	0.903
RRIRGRPPRLPRPRPRPPHPPRP	0.643
RRIRGRPPRLPRPRPRPPIQPRP	0.341
RRIRGRPPRLPRPRPRPPIVPRP	0.0957

Sequence	shrunken log2 fold change
RRIRGRPPRLPRPRPRPPKNPRP	1.11
RRIRGRPPRLPRPRPRPPLGPRP	0.844
RRIRGRPPRLPRPRPRPPMDPRP	0.597
RRIRGRPPRLPRPRPRPPNYPRP	0.299
RRIRGRPPRLPRPRPRPPPDPRP	1.37
RRIRGRPPRLPRPRPRPPPGPRP	1.36
RRIRGRPPRLPRPRPRPPREPRP	1.3
RRIRGRPPRLPRPRPRPPRYPRP	0.701
RRIRGRPPRLPRPRPRPPSSPRP	0.703
RRIRGRPPRLPRPRPRPPSTPRP	0.643
RRIRGRPPRLPRPRPRPPSYPRP	0.326
RRIRGRPPRLPRPRPRPPTQPRP	0.727
RRIRGRPPRLPRPRPRPPTSPRP	0.879
RRIRGRPPRLPRPRPRPPVDPRP	0.953
RRIRGRPPRLPRPRPRPPWKPRP	0.435
RRIRGRPPRLPRPRPRPPWRPRP	1.07
RRIRGRPPRLPRPRPRPPYYPRP	-0.0196
RRIRGRPPRLPRPRPRPQAAPRP	1.22
RRIRGRPPRLPRPRPRPQAPPRP	0.662
RRIRGRPPRLPRPRPRPQDGPRP	0.0108
RRIRGRPPRLPRPRPRPQDKPRP	0.0315
RRIRGRPPRLPRPRPRPQEDPRP	0.291
RRIRGRPPRLPRPRPRPQEPPRP	0.134
RRIRGRPPRLPRPRPRPQFDPRP	0.61
RRIRGRPPRLPRPRPRPQFFPRP	-0.0486

Sequence	shrunken log2 fold change
RRIRGRPPRLPRPRPRPQFRPRP	0.0341
RRIRGRPPRLPRPRPRPQGKPRP	0.0794
RRIRGRPPRLPRPRPRPQGVPRP	-0.0465
RRIRGRPPRLPRPRPRPQKQPRP	0.154
RRIRGRPPRLPRPRPRPQMKPRP	0.29
RRIRGRPPRLPRPRPRPQNCPRP	0.0394
RRIRGRPPRLPRPRPRPQNQPRP	0.0596
RRIRGRPPRLPRPRPRPQPSPRP	0.65
RRIRGRPPRLPRPRPRPQPVPRP	0.285
RRIRGRPPRLPRPRPRPQQAPRP	-0.0245
RRIRGRPPRLPRPRPRPQQFPRP	0.239
RRIRGRPPRLPRPRPRPQQYPRP	-0.107
RRIRGRPPRLPRPRPRPQRCPRP	0.0883
RRIRGRPPRLPRPRPRPQRDPRP	0.419
RRIRGRPPRLPRPRPRPQTTPRP	0.889
RRIRGRPPRLPRPRPRPQVNPRP	0.0954
RRIRGRPPRLPRPRPRPQVWPRP	0.846
RRIRGRPPRLPRPRPRPQWLPRP	0.136
RRIRGRPPRLPRPRPRPRANPRP	0.816
RRIRGRPPRLPRPRPRPRCKPRP	0.476
RRIRGRPPRLPRPRPRPRDHPRP	0.978
RRIRGRPPRLPRPRPRPREEPRP	1.57
RRIRGRPPRLPRPRPRPRFDPRP	0.382
RRIRGRPPRLPRPRPRPRFGPRP	0.662
RRIRGRPPRLPRPRPRPRFHPRP	0.0803
